This note sets out measurements from publication PMC3202669.

For this test, the target named is 7c12 monobody displayed on phage. Briefly: ELISA.

The substance GST-Abl SH2 I164E (domain or fragment) came in with a fold reduction of binding against WT of 400 fold.
